From paper PMC3485628
pKd: −log10 of the molar value. Where two headings read alike, the source gives them in different places.

Legend:
[1] = biological target: a commercial source of HSPG; assay: ELISA; capture antibody CSI 001-71 (anti-Pln.D1) coated, then rhPln.247 (1 ug/ml) or HSPG, then dilutions of rhBMP-2; retained BMP detected with anti-BMP antibodies; background subtracted; apparent Kd
[2] = biological target: recombinant human perlecan domain 1 proteoglycan rhPln.247 (human) (UniProt P98160); assay: as above
[3] = biological target: a commercial source of HSPG; assay: as above; remark: listed apart in the source
[4] = biological target: recombinant human perlecan domain 1 proteoglycan rhPln.247 (human) (UniProt P98160); assay: ELISA; rhPln.247 coated directly on polystyrene microtiter wells overnight at 4°C in PBS/N3 at about 1-2 ug/ml; rhBMP-2 or rhBMP-7 serially diluted; retained BMP detected with biotinylated anti-BMP antibodies; background without rhPln.247 subtracted; apparent Kd
[5] = biological target: recombinant human perlecan domain 1 proteoglycan rhPln.247 (human) (UniProt P98160); assay: as above; remark: listed apart in the source

recombinant human perlecan domain 1 proteoglycan rhPln.247 (human), sequence (P98160 22-247): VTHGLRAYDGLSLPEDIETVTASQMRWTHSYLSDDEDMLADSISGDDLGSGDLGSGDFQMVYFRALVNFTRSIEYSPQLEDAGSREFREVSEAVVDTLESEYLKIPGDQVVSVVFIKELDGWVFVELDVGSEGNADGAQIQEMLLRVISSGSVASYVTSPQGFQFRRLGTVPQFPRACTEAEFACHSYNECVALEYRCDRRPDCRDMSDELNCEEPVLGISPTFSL
recombinant human bone morphogenetic protein-2, sequence (P12643 283-396): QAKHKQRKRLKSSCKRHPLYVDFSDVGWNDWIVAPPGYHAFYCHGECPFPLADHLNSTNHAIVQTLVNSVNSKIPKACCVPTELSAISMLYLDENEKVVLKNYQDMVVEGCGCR

## recombinant human bone morphogenetic protein-2 (from UniProt P12643 283-396) (ligand)
[1]
  pKd: 6.82
[2]
  pKd: 9.22
[3]
  pKd: 9.82
[4]
  pKd: 9.40
[5]
  pKd: 9.24
